Drawing on PMC8216470, this text covers Kd for four substances.

pKd: −log10 of the molar value.

Common to all, as to experiment: MST
What all share (conditions): MST with Cy5-labelled tRNA; buffer, salt, pH and temperature not in the material (protein storage: 10 mM Tris-HCl pH 8.0, 200 mM NaCl, 0.5 mM TCEP)

Data set [1] deals with ADAT2;ADAT3-Δloop (Mus musculus;Mus musculus).
Data set [2] concerns ADAT2;ADAT3 WT (Mus musculus;Mus musculus).
Data set [3] has as its system TadA (Escherichia coli).
The subject of data set [4] is ADAT2;ADAT3-ΔN (Mus musculus;Mus musculus).
For data set [5], the system named is ADAT2;ADAT3-V128I (Mus musculus;Mus musculus).
Data set [6] deals with ADAT2;ADAT3-V128M (Mus musculus;Mus musculus).
In data set [7] the test system is ADAT2;ADAT3-V128L (Mus musculus;Mus musculus).

Usually pKd stands for −log10 of the Kd, conventionally taken in molar units. On to tRNAArg(ACG), for which the pKd in data set [1] is 5.19; in data set [2] it was 5.43; in data set [3], 5.18.

With tRNAAla(AGC), the pKd is 5.17 in data set [1] and 5.10 in data set [2].

As for tRNAGly(CCC), the pKd in data set [2] is 5.52; in data set [4] it was 4.45.

Turning to tRNAVal(AAC), the pKd is 5.48 in data set [5]; 5.17 in data set [1]; 5.46 in data set [2]; 5.60 in data set [6]; 4.35 in data set [4]; 5.38 in data set [7].
